Measured values reported in the DeepSol protein solubility set.

Assay: soluble on expression in E. coli; label from the status in PepcDB or PDB records

Sequence	soluble on expression in E. coli
MSLDAKLRYKAKKIKIVFFDIDDTLRNSKTGFIPTTIPTVFKQLREKGILTGIASGRGIFGVVPEIRDLKPDFFVTLNGAYIEDKKGQVIYQHQIEKSDVEEYISWAKQEGIEYGLVGSHDAKLSTRTDMMSEAINPIYPDLDVDPGFHEKEDIYQMWTFEDKGDDLHLPDSLSDKLRMVRWHQHSSDIVPISGSKATGVEKVVEHLGLKPEKVMVFGDGLNDLELFDYAGISVAMGISHDKIKEKADYITKTLEEDGIFDALEVFGMVEKELHFPQVDIETVEGPLATIKTNHGDLRIKLFPEHAPKTVANFVSLSKDGYYDGVIFHRIIKDFMIQGGDPTGTGMGGESIYGESFEDEFSEELYNIRGALSMANAGPNTNGSQFFIVQNQHLPYSKKEITRGGWPEPIAEIYANQGGTPHLDRRHTVFGQLADEASYAVLDVIAAVETGAMDKPVEDVVIETIEIEDEGHHHHHH	soluble
STRDDDDDEDDEEEEDSGAWGRESYAFDGFHPTEEFGFSFSPRGGMRFHGNFGFDDLVRDFNSIFSEMGAWTLPSHSPELPGPESETPGVRLREGQTLRDSMLKYPDSHQPRIFEGVLESHAKPESSKPAPDWGSQGPFHRLDDTWPVSPHSRAREDKDLDSQVSQEGLGPLLQPQPKSYFKSISVTKITKPDGTVEEHRTVVDGEGRRETTVTHQEAHDSSRSDPDPPRSSALDDPFSILDLLLGRWFRSR	soluble
GHSMHHHHHHLGNKLSISDLKDIKNKKVLVRVDFNVPIENGIIKDTNRITATLPTINHLKKEGASKIILISHCGRPDGLRNEKYTLKPVAETLKGLLGEEVLFLNDCVGKEVEDKINAAKENSVILLENLRFHIEEEGKGVDANGNKVKANKEDVEKFQNDLTKLADVFINDAFGTAHRAHSSMVGVKLNVKASGFLMKKELEYFSKALENPQRPLLAILGGAKVSDKIQLIKNLLDKVDRMIIGGGMAYTFKKVLNNMKIGTSLFDEAGSKIVGEIMEKAKAKNVQIFLPVDFKIADNFDNNANTKFVTDEEGIPDNWMGLDAGPKSIENYKDVILTSKTVIWNGPQGVFEMPNFAKGSIECLNLVVEVTKKGAITIVGGGDTASLVEQQNKKNEISHVSTGGGASLELLEGKELPGVLALSNK	soluble
MAARQQLALLSVSEKAGLVEFARSLNALGLGLIASGGTATALRDAGLPVRDVSDLTGFPEMLGGRVKTLHPAVHAGILARNIPEDNADMNKQDFSLVRVVVCNLYPFVKTVSSPGVTVPEAVEKIDIGGVALLRAAAKNHARVTVVCDPADYSSVAKEMAASKDKDTSVETRRHLALKAFTHTAQYDAAISDYFRKEYSKGVSQLPLRYGMNPHQSPAQLYTTRPKLPLTVVNGSPGFINLCDALNAWQLVKELKQALGIPAAASFKHVSPAGAAVGIPLSEEEAQVCMVHDLHKTLTPLASAYARSRGADRMSSFGDFIALSDICDVPTAKIISREVSDGVVAPGYEEEALKILSKKKNGGYCVLQMDPNYEPDDNEIRTLYGLQLMQKRNNAVIDRSLFKNIVTKNKTLPESAVRDLIVASIAVKYTQSNSVCYAKDGQVIGIGAGQQSRIHCTRLAGDKANSWWLRHHPRVLSMKFKAGVKRAEVSNAIDQYVTGTIGEDEDLVKWQAMFEEVPAQLTEAEKKQWIAKLTAVSLSSDAFFPFRDNVDRAKRIGVQFIVAPSGSAADEVVIEACNELGITLIHTNLRLFHH	soluble
MNTVIDFSAGVPPAVEVKAAGHIGVMRYISPPRLSWMTAKPATRPQIDRCRSAGVDVGFVWQYGGADNPDTMRGRTGGHADATSAQAKLIELGCPHHPVFFAVDFDISLDQWNATAVHYFKAACEVLGRDRVGIYGHSRVISWAVEDQVIADLGGGKHLAWQTPAWSMGERATEAVLYQGAANVKGPAGINIDVNEVLHHEWGQHPVGETRLEKSQEMELAMKPNPNHRGDPLFLPDVLKAFGVKVQEWDGWRDRGHGDFTVIQGVFAHHTGTDKDIPGYIADHPELGLCSQIHLNRDGTAVIVGAGIAYHAGRGSYPGWPTDNANQVAIGIEAASSGTSPWPPAQLDAYYRTCAAILWYLGKPATPQTLLGHKEYSGAAQGKWDPGGIDMNDFRRNVQHYIDNPPFLAADAAHITKEEDPMIQSLINPAKKFAQSTLISIVDATCWQILVLAKAIAKKQGLDPDQILADAITADREGK	not soluble
MGSDKIHHHHHHMVRTTKFGDLPVLHVFAASQAQTKLPTIIDYHGWTNQTATELGTAYQLVRAGFRVILPTAYLHGSRNDGTDLDRHPEHFWSIVGHSVAEFPQLVAALVAAGISDANKIGVMGTSMGGITAAGIMATQPTVVAGVSLIGSPEPVAFATDQVAQLPAALQAKLPAELIEQTYQQLAKFDLSEHPEALAGRPMFFFNGTADQMVPYQYIRDFKHRFKDEPALKATVFKRAEGGVHHVPHKIQEAAVAFLETNILK	not soluble
MKLFHTADWHLGKLVHGVYMTEDQKIVLDQFVQAVEEEKPDAVIIAGDLYDRAIPPTEAVDLLNDVLQKIVIDLQTPVIAVAGNHDSPDRIHFGSSLMKKQGLHIVGQFQFPYEPVVLNDEYGEVHFHLIPYADPSIVRHVLKNEDVRSHDDAMRIFMNELSETMDKEARHVFVGHAFVTSSGEAEENTSDAERPLSIGGAEYVNSHYFDKFHYTALGHLHQAHFVRNETIRYSGSPLAYSISEEKHKKGYYIVELNETGEVAIEKRLLSPRRKMRTVEAKIDELLQHPVSEDYVFVKLLDENPVLQPMEKIRSVYPNAMHVERAMQRRELTDTNEVTVSRHKTDDLSLLKAFYKEMKGLDLSEEKERLFIDVLQTVQEREGERG	not soluble
MNTSTSAFDFGSSTASSAATSTTSSQPDANDHLSRLAAMTQGVGKEDPETSSTPSTEASLYPGISAAYMQSYGWPQNYNYFGQPLGPATFPGWPQCYPNTAWPNYGELFASSKKGRQTYQRYQTSVLEAKFQQSSYVSKKQREELRLQTQLTDRQIKIWFQNRRMKAKKEKQRVDDHTEHTPLLPANPPKGMGMDMDDEKKWQMAHWPPAAAHNPYQYPLCPP	soluble
SLKITDVQLTAIGMPRLTGFVNKHVIVQLFTDEGIEGIGEMSDFSHLPKYAVDIVDLERTLKQILVGKNPFDIAPINTELNGNFPEAMYYYEKGSFIRNGVDTALYDLCAKALGVSVSDLLGGRQREKIKVCFPIFRHRFMDEVEANLELVKKQYEKGFDVFRLYVGKNVDADEAFLAGVYNEFGGKVKVKSLDFSHLLDWKEALRITRRLAKYPIDLVESPALRNDFAGLHHFRMRCELPVSEHVWSLRQQSEMIKHDSVDIFNIAPVFIGGITQARKAADAAAVAEKSVLIGTTQELSIGTTAMAYFGSTLDHLNYISDPTGPELYVGDVVKNKVNYENGYLHLPERSTIGLGMELDWEKVEQYRVESLNWEDVSVHQLQDRTAQTRA	not soluble
MSFSLEMPQMLPAPRDCYAVPGKPGHSEPLTVVGWEHMDLKLFYPSALFSSWSIRTALYPLAVLRSQLQLQKQNTVYRSTFHAYSDISKREGFRGLYRGFWITVPQIGCSFIYSTIFEKCRAVLHEQGIQSVGGVAAVAGGLASFATQSIFVPTDIIAQYMMIYKNTDKLTAGHDKSVIDGVRNHVKNGSGLGTSVIKAIYKTDGILGFYRGFWASTAVYVPQMLTFWPSYYWMLGLFNKVPYRTLHPATNRSLLFDQAVAATLGGVISTVATNPMELFRVRLQVHRGSYSKTLETMLRDEKTAVFTKGLTPRIIANSMYSGLVVVGYEIVKRLCAKEEYKHRVKW	not soluble
MGSDKIHHHHHHMTLLRGDDFFTSRAVTVAVEPRTPQTAFPEHYHDFWEIVLVEQGAGVHVFNDQPYALCSGSVFFVRDNDRHLFEDVEGLCLTNMLYRSPRGFRFLSDIAAFLPYGPNGEWQGQWQVNAAGMQQLKQSLNSLAGLAQSDAPEAIAASESLFLQILVQLRQHCFQTEGNGSERQGVQALLGWLQNNYSEEVNWGGLADQFSLPLRTLHRQLKQHTGMTPQRYLNRLRLLEARRRLQQSDDSITTIAHACGFSDSNHFSTQFRKAFSQAPKSLRHQAFSREE	not soluble
KEFFLAKHAEQKKRHHKYNDTEYNLEPNVKGSPGGLRDIQTILWVARRQYGTLNLHALAGEGFLLGSENALLASSQEFLWKVRYALHMLAGRSEDRLLFDYQVRIAGLLGYEDNDAKLAIERFMQKYYRVVMSIAELSDLIIQHFEEVILSDDDGTPQPINSRFQLHDGYIEATNPNVFRRTPFAMLEIFVLMAQHPEIKGVRADTIRLL	not soluble
MGSDKIHHHHHHMTLADYVEIETTKDELIRACKQAADLIRTRVDYKYILVLLFLKKLSDEWKREYREALKTLMEKGVDEEEAKILAKDRSFHKFDYPEKYTWEELRKNVNELPVRLSEALKLLAEKNPELQGVVDRLDFLEFTRARDNFDILVQLFELFSGLNLGRASDSILGDAYEWLIGYFAPQKAKEGEVFTPSEVVELIVRIVDPKPMDSVYDPAAGYARMLIRAYDYVKEKYGEEEVRKLFLYGQEVNPTTYAIAKMNAIVHGIKDINLVVGDTLKNPRFKEGETFRKFDIVIANPPWNQDGYGEEELKKAEFYDERFRYGFTPKQSADWAWIQHMLASAKKKVGVVIDNGCLFRGGKEGAIRKAVVEDDLIECVILLPEKLFYNTGAPGAIIIFNKQKPESRKGKILFINASNEYEKHPEVRKLNRLGEKHIEKIVSAYREFKDGDGFCRVVDVEEVRKNDYNLNVTLYVFPQEEVEEIDVAKEWEELRGIEREIDEVERRIEEYLAELGFGRG	not soluble
MAFLLKLEPDMQGKVDLFRARIAQEAEDLVSTFFPQKVLELNSRVQELRLQDLSRIHSVPTSEPLATPGNKGDGPNQNLPVLLTQFSIKVPALLGSEGQLLRSNQHLVELTEWVKPEIKLLREKCNTVHM	not soluble
MGSDKIHHHHHHMARLAVEPLEALARYQGEPALAAMRREFLPAVTDPVWRGLVEEFLTLDEPLTPYAHQCRRVWSFAASPGSGAHHAHIGGLALHVLQDLRNARALAEAHEARGLALDRGLLFAAIMLHDCLKRFVYDFDDDYALVKAEDPFIARHEDHHSWMLRELVARGVDRTLVLAVAAMHGLDDVSLASGVRPLAVVNHYLEIGLTGLEMQPEDVRAEHSIGFLSDSDWPWSGRAQQRAREVAAALSPRFEVTTGYMNLYLGSRFSFEHIDSLLRTKGHDGTVDHLSTLLEKQG	not soluble
MYGVLVWPPEDLRRFMEELQAARGVRGFGPPHLNLRQPFDWPYEEEALRIALAGILRGHPPFRVRLGDWRFFPQGVVYLRAYGGGAFRRLYHALEPLAPPLKEIEGPSYIPHLTLALGLSPEEAKALAQSLPPPPRRSFLVREAALVRDEGEGLVEVARFPLGPSPER	soluble
VNKSQLIDKIAAGADISKAAAGRALDAIIASVTESLKEGDDVALVGFGTFAVKERAARTGRNPQTGKEITIAAAKVPSFRAGKALKDAVN	soluble
MGSDKIHHHHHHMACGRMYHFNVFAYGVEEILREVSKKGTESDIRLYNRKEEDGVMTFIEPIKYPDKVSSLTDSIYPTDLFIINGENLDKYFAETVIALDLFGKTRGIIVASEDKQSTIRKLLKDTNIQPEFFSGRPMEIIDRIKAFKIERNEQDTLVVIDHYFKVKSVGTVILGFVLSGKIRKHQDLYLSGINREVQVRSIQVNDVDFDEAEAGTRVGVALKNVEVEELSRGMFLAEKPFEYTNQVKDSVVFHKSLKGRDTMSDPYISDLMNFVKCNPEGDAYTTRFKLPLLKDSFVMADQNGFPRVVGYSKVKR	not soluble
GGFDGHTHSAGKINVGRFINPNDARKNPVPGLSGQVARTEKTRAQVGYNTPNTYAIGYRYAKLGYTTICEAAIPLLAARHTHEEFKEIPILDKMGLSLFGSNWQVMEYIRDKEPEKLAAYIAWGLKASRGYGVKIVNPGGGEAWGWGRNVSGLYDPVPNFDVTPAEILLGLAEANERLQLPHSIHVHCNNLGKPGNYATTIETMKLLEKVKPSRDRQALHVTHVQFNAYAGTSWRDFETGAPMVADYINGANHLTFDLGQVIFGPAVTMTADGPVEYANSRMLHEKWSNQDIELEDASGVVPLFYSPKSFVNAVQWAIGLELALLVKDPWKVMFTTDSPNGGSFVNYPEAFTYLMSAKRREEVISGFSKMALDRMVLPGIDRELDFYELAVMTRSTQSKMYSMPEKGNLKVGSDADIAIYDILPGQVDPSTEYAKVKKAFSAASYTLKSGEVVVKDG	not soluble
